T1: 5'-3' exoribonuclease-2 (XRN-2) (C. elegans (endogenous in worm lysate), UniProt Q9U299 1-975)
T1 sequence (looked up): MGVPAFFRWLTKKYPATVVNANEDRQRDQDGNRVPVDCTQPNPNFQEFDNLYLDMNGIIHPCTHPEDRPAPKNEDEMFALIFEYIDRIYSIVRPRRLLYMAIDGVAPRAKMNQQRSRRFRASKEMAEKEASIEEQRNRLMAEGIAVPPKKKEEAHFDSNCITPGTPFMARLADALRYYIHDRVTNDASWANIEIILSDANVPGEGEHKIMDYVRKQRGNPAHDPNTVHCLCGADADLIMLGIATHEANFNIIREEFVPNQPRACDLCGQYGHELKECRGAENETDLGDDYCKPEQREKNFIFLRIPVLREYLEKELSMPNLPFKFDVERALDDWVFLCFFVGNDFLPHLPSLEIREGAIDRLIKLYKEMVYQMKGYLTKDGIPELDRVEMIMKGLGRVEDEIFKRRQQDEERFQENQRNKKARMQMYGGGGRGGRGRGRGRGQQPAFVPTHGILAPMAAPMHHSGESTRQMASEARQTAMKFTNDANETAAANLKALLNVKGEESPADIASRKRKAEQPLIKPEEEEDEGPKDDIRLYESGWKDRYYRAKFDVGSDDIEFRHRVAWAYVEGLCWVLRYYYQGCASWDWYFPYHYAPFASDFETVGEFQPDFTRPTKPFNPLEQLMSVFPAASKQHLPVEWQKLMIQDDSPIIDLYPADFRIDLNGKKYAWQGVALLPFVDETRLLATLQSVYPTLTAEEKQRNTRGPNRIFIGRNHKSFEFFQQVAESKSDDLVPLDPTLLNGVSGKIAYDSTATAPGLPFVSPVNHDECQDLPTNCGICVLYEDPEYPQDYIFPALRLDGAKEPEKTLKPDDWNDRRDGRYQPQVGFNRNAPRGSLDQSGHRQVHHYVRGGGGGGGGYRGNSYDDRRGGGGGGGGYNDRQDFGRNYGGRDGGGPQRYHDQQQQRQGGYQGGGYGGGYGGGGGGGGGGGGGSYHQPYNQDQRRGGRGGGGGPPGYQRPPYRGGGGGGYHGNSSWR

T2: recombinant XRN-2 (C. elegans, UniProt Q9U299 1-975)
T2 sequence (looked up): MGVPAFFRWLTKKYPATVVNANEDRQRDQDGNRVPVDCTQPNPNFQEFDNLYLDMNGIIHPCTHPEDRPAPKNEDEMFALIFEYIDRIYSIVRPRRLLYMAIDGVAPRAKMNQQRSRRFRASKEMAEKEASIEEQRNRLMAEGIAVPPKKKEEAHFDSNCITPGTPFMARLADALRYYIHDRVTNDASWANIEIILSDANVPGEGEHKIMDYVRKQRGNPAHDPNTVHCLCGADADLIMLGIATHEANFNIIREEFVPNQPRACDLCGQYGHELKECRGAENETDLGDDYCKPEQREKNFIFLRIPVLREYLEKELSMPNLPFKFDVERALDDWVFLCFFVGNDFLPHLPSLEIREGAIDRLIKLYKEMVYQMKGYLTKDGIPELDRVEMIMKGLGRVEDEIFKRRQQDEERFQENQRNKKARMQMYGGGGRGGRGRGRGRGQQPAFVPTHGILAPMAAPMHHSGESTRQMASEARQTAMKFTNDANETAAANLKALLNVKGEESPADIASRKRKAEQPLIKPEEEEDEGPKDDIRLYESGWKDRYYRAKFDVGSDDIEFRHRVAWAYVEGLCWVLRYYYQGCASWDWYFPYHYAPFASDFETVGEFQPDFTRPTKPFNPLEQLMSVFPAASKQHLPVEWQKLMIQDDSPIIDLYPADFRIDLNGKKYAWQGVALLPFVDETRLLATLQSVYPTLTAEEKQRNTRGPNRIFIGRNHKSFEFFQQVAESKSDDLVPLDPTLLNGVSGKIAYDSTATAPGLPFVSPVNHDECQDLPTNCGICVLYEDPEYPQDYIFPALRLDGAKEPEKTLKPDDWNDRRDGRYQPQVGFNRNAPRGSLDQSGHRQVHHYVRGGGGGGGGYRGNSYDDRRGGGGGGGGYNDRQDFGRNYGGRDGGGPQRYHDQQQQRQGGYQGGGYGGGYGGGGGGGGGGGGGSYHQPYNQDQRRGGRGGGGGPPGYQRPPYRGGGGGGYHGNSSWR


Columns and labels:
[1] = target: 5'-3' exoribonuclease-2 (XRN-2) (C. elegans (endogenous in worm lysate)) (UniProt Q9U299); experiment: SDS-PAGE of the RNA-affinity purified complex
[2] = target: T1, 5'-3' exoribonuclease-2 (XRN-2); experiment: SDS-PAGE of the RNA-affinity purified complex
recombinant XRN-2 = target: T2, recombinant XRN-2

| Molecule | stoichiometry N [1] | stoichiometry N (recombinant XRN-2) | also measured |
| --- | --- | --- | --- |
| NOL-58 (natural protein) | 1 |  |  |
| miRNasome-1.4 (B0024.11) (natural protein) | 1 |  |  |
| partner of XRN two-1 (PAXT-1) (natural protein, C. elegans (endogenous in worm lysate), UniProt Q21738 1-335, looked up) MGKLEDVEAEKKLWESDDAWELRKAFMLAHYDDYPKIQLQCLSQLFINVTLLGCEYSQTLMQKIRTMGAGIAANKDRTKTGSYVKASAAKKRQAVKTSDLEGASDESKKVKMEKSPSPVARESFDERLGKLKASLAMTPHHLTGEQMMKTATNSCLMKWHVNKINQKIEITIDRYVAFRHTFSQYCVDPRDCAINTLIESILSCDAAVHEESYEIRFDGVPVDECYAKSVTRRLAKIKSAVSNGAHTVKGLTTYLDAVNMSMIQNTQKLEGWSQQLDLVTADLLLSSRVLSSTECTKPAMATIANQMSEDVCQLILNDKINVINSMKSHSSLAFQ |  |  | stoichiometry N [2]: 1 |
| recombinant miRNasome-1.4 (natural protein, C. elegans, UniProt Q17426 1-577, looked up) METEFGLTEYASEHTITPVPCLLKEMYSDFIVQEILADHTVLAIPSPDVVLESTGSKKEDIEIEECVAKPDCISEETLAALNDRFSTKGDPVLVKVDDLSKEDRKSIHHFIRERYAGVLITETKEDGILVSHGHTKSSRKRKLWDEKVPKECHFTICKENKETSFACQLIAKFLNVGPNNIRTHGIKDKRAVTSQRVSVTKVHERTILDLNSKLRGIRVFGCEYKDDPVQMGAHWGNRFSIVLRSLPDDSEQLLHQRLETFQNTGFINYFGTQRFGSRSSTTAEIGLAIVKRDWEKAVKMIMTNAMPDHLGYGSVGYAAKCFSQTGDARKAFSKLKGAQAFATVEGNILKCLSKGGTWQNCITEAIPIQSRSLYVHAYQSLIWNKVASRRVKEYGTRVHESDVGANGFSLGEHATHYDIHIPLPGENLPFEGSYGAKWISELLEEDGLTQSSFTALKDRFSLGESSRCLFVEAKELKWKFIRYGNARDLLQDGLQTRAIPEAEQKGPLLALQIQFSLISGSYATVALREVTGSDMGKKAMRDASFKTRGDDEKTEENVLEEKGSDDANELNLVSEDQ |  | 1 |  |

Now from value to molecule, other results behind:

| stoichiometry N [1] | stoichiometry N (recombinant XRN-2) | Molecule | also measured |
| --- | --- | --- | --- |
|  | 1 | recombinant PAXT-1 (natural protein, C. elegans, UniProt Q21738 1-335, looked up) MGKLEDVEAEKKLWESDDAWELRKAFMLAHYDDYPKIQLQCLSQLFINVTLLGCEYSQTLMQKIRTMGAGIAANKDRTKTGSYVKASAAKKRQAVKTSDLEGASDESKKVKMEKSPSPVARESFDERLGKLKASLAMTPHHLTGEQMMKTATNSCLMKWHVNKINQKIEITIDRYVAFRHTFSQYCVDPRDCAINTLIESILSCDAAVHEESYEIRFDGVPVDECYAKSVTRRLAKIKSAVSNGAHTVKGLTTYLDAVNMSMIQNTQKLEGWSQQLDLVTADLLLSSRVLSSTECTKPAMATIANQMSEDVCQLILNDKINVINSMKSHSSLAFQ |  |
|  | 1 | recombinant NOL-58 (natural protein, C. elegans, UniProt O45012 1-487, looked up) MLVLFEVAAGYAVFKLSNEKKLKNVDNIWEEFSTAEKAQENLQLVSFKKFKTTAGAVEATSEITEGKLSKTLKKLLKSSVDETEKLAVGDAKLGNLIKEKLSLNCVHDSSINELMRGVRAHIEDLLAEHKEEMNAMNLAVAHSLARYKVKFNPEKIDTMIVQAVSLLDDLDKELNNYVMRVREWYGWHFPELGKTIQDHQAYAKIIKAIGMRQNCINTDLSSILPEELEEKVKEDAEISMGTDISDIDLIHIKGLCDQVIELSAYRAQLFDYLKNRMTALAPNLTVLLGELVGARLISHAGSLVSLAKAPASTIQILGAEKALFRALKTKKDTPKYGLIYHAQLITQAPPKVKGKMARKLAAKCSLATRIDALSDESATNEIGIECRAALENVLRTESERGPSKNKSFGSHRHDKYEFKSETYEYDASADTPASRKHKRFDDNEESTNAIKKMKIEEVKEEDEAEPEKKKKKKEKKAKKADTDSDEE |  |

— doi:10.1101/2020.12.28.424526 (bioRxiv, 2020)
